{"source": "patent US10716830B2", "about": "“ERBB4 activator screening assay” (Children's Hospital Los Angeles, priority 2011, dated 2020)", "key": {"[1]": {"test_system": "EGFR, ErbB2, ErbB3, and ErbB4", "test": "ErbB receptor phosphorylation by western blot with phospho-specific antibodies", "assay_type": "cell-based, mouse", "details": "YAMC-B4 cells (human ErbB4 construct); 10 min; HRG-1β 100 ng/ml, NRG4, EGF 10 ng/ml", "source_text": "(§1) Conditionally immortalized, non-transformed young adult mouse colon (YAMC) epithelial cells were provided by Dr. Robert Whitehead (Whitehead, R. H., VanEeden, P. E., Noble, M. D., Ataliotis, P., and Jat, P. S. (1993) Proc Natl Acad Sci USA 90, 587-591). These cells express low levels of endogenous ErbB4; YAMC-B4 cells expressing a human ErbB4 construct were generated as previously described (Frey, M. R., Edelblum, K. L., Mullane, M. T., Liang, D., and Polk, D. B. (2009) Gastroenterology 136, 217-226). […]\n(§2) Cell lysates were extracted in modified RIPA buffer as previously described (Frey, M. R., Dise, R. S., Edelblum, K. L., and Polk, D. B. (2006) Embo J 25, 5683-5692), cleared by centrifugation, and boiled in Laemmli sample buffer. Samples were separated on SDS-polyacrylamide gels (6-10% as appropriate), blotted on PVDF membranes, and subjected to quantitative immunoblot using the Li-Cor Odyssey infrared detection system. Equal loading was monitored by immunoblots for actin and at least one additional protein.\nPhosphorylation of EGFR, ErbB2, ErbB3, and ErbB4 was determined by western blot analysis of cell lysates using phospho-specific antibodies. […]"}, "YAMC-B4 cells [2]": {"test_system": "YAMC-B4 cells", "test": "Cell migration/restitution (modified scratch) assay", "assay_type": "cell-based, mouse", "details": "8 h", "description": "Cells grown on fibronectin-coated plates were subjected to multiple circular wounds with a rotating silicone probe as previously described (Corredor, J., Yan, F., Shen, C. C., Tong, W., John, S. K., Wilson, G., Whitehead, R., and Polk, D. B. (2003) American journal of physiology. Cell physiology 284, C953-961). Cultures were photographed immediately and 8 h after wounding; % closure was determined by measuring wounds in Image.\nTo test the potential effect of NRG4-ErbB4 signaling on cell motility, we used a modified scratch assay for restitution/migration (Corredor, J., Yan, F., Shen, C. C., Tong, W., John, S. K., Wilson, G., Whitehead, R., and Polk, D. B. (2003) American journal of physiology. Cell physiology 284, C953-961). Over an 8 h period, NRG4 had no effect on the rate at which YAMC-B4 cells moved into the denuded area of a culture plate (FIG. 4C), while in contrast EGF caused a 54% increase in migration over control."}, "Akt [3]": {"test_system": "Akt", "test": "Akt phosphorylation in colon epithelium of injected mice", "assay_type": "in vivo, mouse", "details": "mice injected with NRG4, with or without TNF plus IFN-γ; 24 h", "description": "(§3) All animal use was approved and monitored by the Children's Hospital Los Angeles Institutional Animal Care and Use Committee. […] Cytokines, growth factors, and inhibitors were given by intraperitoneal injection. 24 h after injections, mice were sacrificed and colons collected either for fixation and embedding or for epithelial lysates. For the latter, colons were incubated in Cell Recovery Solution (BD Biosciences, San Jose, Calif.) for 1 h at 4° C.; crypts were released by vigorous shaking and collected by centrifugation, similar to as previously described (Whitehead, R. H., and Robinson, P. S. (2009) American journal of physiology. Gastrointestinal and liver physiology 296, G455-460). Collected crypts were lysed and processed similar to cultured cells as below. For murine colitis, IL-10^−/− mice on C57Bl/6 background were maintained unchallenged until 32-36 weeks of age, at which point knockout mice but not wild-type animals have extensive inflammatory cytokine-driven colitis (Kuhn, R., Lohler, J., Rennick, D., Rajewsky, K., and Muller, W. (1993) Cell 75, 263-274).\nTissues and cells were fixed with 4% paraformaldehyde (Electron Microscopy Sciences, Hatfield, Pa.). […] For immunofluorescence, slides were mounted with Vectashield medium containing DAPI (Vector Laboratories, Burlingame, Calif.). […]"}, "YAMC-B4 cells [4]": {"test_system": "YAMC-B4 cells", "test": "EdU proliferation assay", "assay_type": "cell-based, mouse", "details": "24 h stimulation", "description": "(§4) Proliferative index in fixed colon specimens was assessed by immunohistochemical stain for Ki-67. In vitro, cells were exposed to vehicle or growth factors for 24 h, then labeled with 5-ethynyl-2-deoxyuridine (EdU) for 2 h and fixed. Nuclei were marked with DAPI, and incorporated EdU was detected using a Click-iT EdU kit (Invitrogen).\n(§5) Most ErbB ligands stimulate multiple cellular processes, including proliferation and migration, in colon epithelial cells (Frey, M. R., Golovin, A., and Polk, D. B. (2004) J Biol Chem 279, 44513-44521). To determine if NRG4 is similarly broad in its cellular effects, we subjected YAMC-B4 cells to proliferation assays in the presence of NRG4. […] In vivo, the number of Ki67-positive nuclei per crypt in PBS vs. NRG4-injected mice was not altered 24 h post-injection (FIG. 4B)."}, "[5]": {"test": "Experimental necrotizing enterocolitis (NEC) model"}, "Akt [6]": {"test_system": "Akt", "test": "Akt phosphorylation in whole cell lysates by western blot", "assay_type": "cell-based, mouse", "details": "YAMC-B4 cells; NRG4 100 ng/ml, 10 min", "source_text": "as §2\n(§6) To identify signaling pathways which could be involved in NRG4-stimulated cell survival, we exposed YAMC-B4 cells to NRG4 or EGF and prepared whole cell lysates for western blot analysis. […] Furthermore, COX-2 expression, which is induced by either HRG-1β or EGF after 6 h exposure, and is required for cell survival induced by ErbB4-EGFR dimers (Frey, M. R., Hilliard, V. C., Mullane, M. T., and Polk, D. B. (2010) Laboratory Investigation 90, 1415-1424), was not induced by NRG4. Thus, NRG4 promotes cell survival through pathways at least partly distinct from those activated by other ligands."}, "[7]": {"test": "Dextran sodium sulfate-induced acute murine colitis", "assay_type": "in vivo, mouse", "details": "C57/BL6 mice, NRG4 100 μg/kg injected daily vs PBS", "procedure": "6-8 week-old male C57/BL6 mice were given 3% DSS in drinking water for 7 days and injected daily with either PBS or NRG4 (100 μg/kg). Weight-loss was monitored over the course of the experiment (FIG. 4D(i)). On day 7, mice were sacrificed; colons were excised, rolled and fixed. H&E sections were scored by a pathologist blind to the experimental conditions using a scoring system adapted from that of Dielman et al. (Dieleman, L. A., et al., Chronic experimental colitis induced by dextran sulphate sodium (DSS) is characterized by Th1 and Th2 cytokines. Clinical and experimental immunology, 1998. 114(3): p. 385-91) (FIG. 4D(ii))."}, "colon crypts": {"test_system": "colon crypts", "test": "Ki-67 proliferative index in colon in vivo", "parameters": "species or system mouse", "details": "24 h post-injection", "description": "as §4, §5"}, "colon epithelial cells": {"test_system": "colon epithelial cells", "test": "Cytokine-induced colon epithelial apoptosis in vivo", "parameters": "species or system mouse", "details": "C57Bl/6 mice, NRG4 100 μg/kg i.p., TNF 250 μg/kg plus IFN-γ 250 U/g, 24 h", "description": "as §3, with “For murine colitis, IL-10^−/− mice on C57Bl/6 background were maintained unchallenged until 32-36 weeks of age, at which point knockout mice but not wild-type animals have extensive inflammatory cytokine-driven colitis (Kuhn, R., Lohler, J., Rennick, D., Rajewsky, K., and Muller, W. (1993) Cell 75, 263-274).” left out\nFor apoptosis analysis in vivo, mice were injected i.p. with PBS/vehicle, TNF (250 μg/kg) plus IFN-γ (250 units/g), NRG4 (100 μg/kg), or NRG4 plus TNF and IFN-γ. […] Apoptosis was detected by in situ oligo ligation (ISOL; EMD Millipore, Billerica, Mass.) staining for DNA fragmentation on sections of paraffin-embedded tissue, and by cleaved caspase-3 western blot on homogenates.\n24 hours after injections, colons were harvested. Apoptosis assessed by Western blot analysis for cleaved caspase-3 on isolated epithelial cells determined that NRG4 blocked cytokine-induced apoptosis in vivo (FIG. 3A, B; 3.6-fold decrease, p=0.012)."}, "[8]": {"test_system": "rat intestinal epithelial cells", "test": "Cronobacter sakazakii-induced apoptosis in cultured intestinal epithelial cells", "assay_type": "cell-based", "source_text": "NRG4 inhibits CS-induced cell death."}, "COX-2": {"test_system": "COX-2", "test": "COX-2 expression in YAMC-B4 cells", "assay_type": "cell-based, mouse", "details": "6 h exposure", "description": "as §6"}, "ERK MAPK": {"test_system": "ERK MAPK", "test": "ERK MAPK phosphorylation in whole cell lysates by western blot", "assay_type": "cell-based, mouse", "details": "YAMC-B4 cells; NRG4 100 ng/ml, 10 min", "source_text": "as §2, §6"}, "YAMC-B4 cells [9]": {"test_system": "YAMC-B4 cells", "test": "Cytokine (TNF plus IFN-γ)-induced apoptosis in cultured colon epithelial cells", "assay_type": "cell-based, mouse", "details": "NRG4 100 ng/ml, TNF 100 ng/ml plus IFN-γ 150 U/ml, 6 h, p<0.03", "source_text": "as §1\nCultured mouse colonic epithelial cells expressing ErbB4 (YAMC-B4) cells were exposed to TNF (100 ng/ml) plus interferon (IFN)-γ (150 units/ml), with or without NRG4 (100 ng/ml). After 6 h, the cells were fixed and apoptosis was assessed by immunofluorescence analysis for cleaved caspase-3. When the YAMC-B4 cells were given 100 ng/ml NRG4, cells were protected from apoptosis induced by the 6 h exposure to the cytokine cocktail containing TNF (100 ng/ml) and IFN-γ (150 U/ml), as measured by immunofluorescence analysis for cleaved caspase-3 (FIG. 1B; 2.7-fold decrease with cytokines plus NRG4 vs. cytokines alone, p<0.03)."}}, "data": [{"molecule": "Neuregulin-4 (protein, UniProt Q8WWG1 1-62, looked up, ectodomain, ErbB4-specific ligand) extracellular domain: MPTDHEEPCGPSHKSFCLNGGLCYVIPTIPSPFCRCVENYTGARCEEVFLPGSSIQTKSNLF", "values": [{"measurement": "phosphorylation of EGFR, ErbB2, ErbB3, and ErbB4", "setting": "[1]", "result": "activated only ErbB4"}, {"measurement": "rate at which cells moved into the denuded area (migration), in words", "setting": "YAMC-B4 cells [2]", "result": "no effect"}, {"measurement": "Akt phosphorylation in colon epithelial cells versus controls (western blot, immunofluorescence)", "setting": "Akt [3]", "result": "increased Akt phosphorylation"}, {"measurement": "cellular uptake of EdU (proliferation) vs. control, in words", "setting": "YAMC-B4 cells [4]", "result": "not different from control"}, {"measurement": "protection of the small intestine", "setting": "[5]; formula feeding/hypoxia model of necrotizing enterocolitis", "result": "protective"}, {"measurement": "survival of rat pups", "setting": "[5]; hypoxia/hypothermia model of NEC in rat pups, given by gavage with each feed", "result": "survive longer"}, {"measurement": "phosphorylation of Akt", "setting": "Akt [6]", "result": "resulted in phosphorylation of Akt"}, {"measurement": "colon shortening", "setting": "[7]; 3% DSS 7 days", "result": "reduces"}, {"measurement": "histologically detectable colonic damage", "setting": "[7]; 3% DSS 7 days, blinded H&E score", "result": "reduces"}, {"measurement": "weight loss", "setting": "[7]; 3% DSS in drinking water 7 days", "result": "reduces"}, {"measurement": "number of Ki67-positive nuclei per crypt, PBS vs. NRG4-injected mice", "setting": "colon crypts", "result": "not altered"}, {"measurement": "decrease in apoptosis, ISOL staining on fixed colon sections", "setting": "colon epithelial cells; p<0.0001", "result": 3.1, "unit": "fold"}, {"measurement": "decrease in cytokine-induced apoptosis, cleaved caspase-3 western blot on isolated epithelial cells", "setting": "colon epithelial cells; p=0.012", "result": 3.6, "unit": "fold"}, {"measurement": "Cronobacter sakazakii induced apoptosis", "setting": "[8]", "result": "attenuates"}, {"measurement": "COX-2 expression", "setting": "COX-2", "result": "not induced"}, {"measurement": "phosphorylation of ERK MAPK", "setting": "ERK MAPK", "result": "not ERK MAPK"}, {"measurement": "decrease in apoptosis (cleaved caspase-3 immunofluorescence), cytokines plus NRG4 vs. cytokines alone", "setting": "YAMC-B4 cells [9]", "result": 2.7, "unit": "fold"}]}]}
